B1: H183/L072 VH F27M (antibody, name in Kabat numbering, V domains shown)
VH: QVQLVESGGGLVQPGRSLRLSCAASGMTFSNAWMHWVRQAPGKGLEWVAQIKDKGNAYAAYYAPSVKGRFTISRDDSKNSIYLQMNSLKTEDTAVYYCHYVHYASASTVLPAFGVDAWGQGTTVTVSS
VL: DIVMTQSPLSLPVTPGEPASISCQASQELVHMNRNTYLHWYQQKPGQAPRLLIYKVSNRFPGVPDRFSGSGSGTDFTLKISRVEAEDVGVYYCAQGTSVPFTFGQGTKLEIK
B2: H183/L072 VH F27W (antibody, name in Kabat numbering, V domains shown)
VH: QVQLVESGGGLVQPGRSLRLSCAASGWTFSNAWMHWVRQAPGKGLEWVAQIKDKGNAYAAYYAPSVKGRFTISRDDSKNSIYLQMNSLKTEDTAVYYCHYVHYASASTVLPAFGVDAWGQGTTVTVSS
VL: DIVMTQSPLSLPVTPGEPASISCQASQELVHMNRNTYLHWYQQKPGQAPRLLIYKVSNRFPGVPDRFSGSGSGTDFTLKISRVEAEDVGVYYCAQGTSVPFTFGQGTKLEIK
B3: H183/L072 VH F100gI (antibody, name in Kabat numbering, V domains shown)
VH: QVQLVESGGGLVQPGRSLRLSCAASGFTFSNAWMHWVRQAPGKGLEWVAQIKDKGNAYAAYYAPSVKGRFTISRDDSKNSIYLQMNSLKTEDTAVYYCHYVHYASASTVLPAIGVDAWGQGTTVTVSS
VL: DIVMTQSPLSLPVTPGEPASISCQASQELVHMNRNTYLHWYQQKPGQAPRLLIYKVSNRFPGVPDRFSGSGSGTDFTLKISRVEAEDVGVYYCAQGTSVPFTFGQGTKLEIK
B4: H183/L072 VH F29T (antibody, name in Kabat numbering, V domains shown)
VH: QVQLVESGGGLVQPGRSLRLSCAASGFTTSNAWMHWVRQAPGKGLEWVAQIKDKGNAYAAYYAPSVKGRFTISRDDSKNSIYLQMNSLKTEDTAVYYCHYVHYASASTVLPAFGVDAWGQGTTVTVSS
VL: DIVMTQSPLSLPVTPGEPASISCQASQELVHMNRNTYLHWYQQKPGQAPRLLIYKVSNRFPGVPDRFSGSGSGTDFTLKISRVEAEDVGVYYCAQGTSVPFTFGQGTKLEIK
B5: H183/L072 VH F27Y (antibody, name in Kabat numbering, V domains shown)
VH: QVQLVESGGGLVQPGRSLRLSCAASGYTFSNAWMHWVRQAPGKGLEWVAQIKDKGNAYAAYYAPSVKGRFTISRDDSKNSIYLQMNSLKTEDTAVYYCHYVHYASASTVLPAFGVDAWGQGTTVTVSS
VL: DIVMTQSPLSLPVTPGEPASISCQASQELVHMNRNTYLHWYQQKPGQAPRLLIYKVSNRFPGVPDRFSGSGSGTDFTLKISRVEAEDVGVYYCAQGTSVPFTFGQGTKLEIK
B6: H183/L072 VH F27V (antibody, name in Kabat numbering, V domains shown)
VH: QVQLVESGGGLVQPGRSLRLSCAASGVTFSNAWMHWVRQAPGKGLEWVAQIKDKGNAYAAYYAPSVKGRFTISRDDSKNSIYLQMNSLKTEDTAVYYCHYVHYASASTVLPAFGVDAWGQGTTVTVSS
VL: DIVMTQSPLSLPVTPGEPASISCQASQELVHMNRNTYLHWYQQKPGQAPRLLIYKVSNRFPGVPDRFSGSGSGTDFTLKISRVEAEDVGVYYCAQGTSVPFTFGQGTKLEIK
B7: H183/L072 VH F29L (antibody, name in Kabat numbering, V domains shown)
VH: QVQLVESGGGLVQPGRSLRLSCAASGFTLSNAWMHWVRQAPGKGLEWVAQIKDKGNAYAAYYAPSVKGRFTISRDDSKNSIYLQMNSLKTEDTAVYYCHYVHYASASTVLPAFGVDAWGQGTTVTVSS
VL: DIVMTQSPLSLPVTPGEPASISCQASQELVHMNRNTYLHWYQQKPGQAPRLLIYKVSNRFPGVPDRFSGSGSGTDFTLKISRVEAEDVGVYYCAQGTSVPFTFGQGTKLEIK
B8: H183/L072 VH F29P (antibody, name in Kabat numbering, V domains shown)
VH: QVQLVESGGGLVQPGRSLRLSCAASGFTPSNAWMHWVRQAPGKGLEWVAQIKDKGNAYAAYYAPSVKGRFTISRDDSKNSIYLQMNSLKTEDTAVYYCHYVHYASASTVLPAFGVDAWGQGTTVTVSS
VL: DIVMTQSPLSLPVTPGEPASISCQASQELVHMNRNTYLHWYQQKPGQAPRLLIYKVSNRFPGVPDRFSGSGSGTDFTLKISRVEAEDVGVYYCAQGTSVPFTFGQGTKLEIK
B9: H183/L072 VH F27N (antibody, name in Kabat numbering, V domains shown)
VH: QVQLVESGGGLVQPGRSLRLSCAASGNTFSNAWMHWVRQAPGKGLEWVAQIKDKGNAYAAYYAPSVKGRFTISRDDSKNSIYLQMNSLKTEDTAVYYCHYVHYASASTVLPAFGVDAWGQGTTVTVSS
VL: DIVMTQSPLSLPVTPGEPASISCQASQELVHMNRNTYLHWYQQKPGQAPRLLIYKVSNRFPGVPDRFSGSGSGTDFTLKISRVEAEDVGVYYCAQGTSVPFTFGQGTKLEIK
B10: H183/L072 VH F27Q (antibody, name in Kabat numbering, V domains shown)
VH: QVQLVESGGGLVQPGRSLRLSCAASGQTFSNAWMHWVRQAPGKGLEWVAQIKDKGNAYAAYYAPSVKGRFTISRDDSKNSIYLQMNSLKTEDTAVYYCHYVHYASASTVLPAFGVDAWGQGTTVTVSS
VL: DIVMTQSPLSLPVTPGEPASISCQASQELVHMNRNTYLHWYQQKPGQAPRLLIYKVSNRFPGVPDRFSGSGSGTDFTLKISRVEAEDVGVYYCAQGTSVPFTFGQGTKLEIK
B11: H183/L072 VH F100gA (antibody, name in Kabat numbering, V domains shown)
VH: QVQLVESGGGLVQPGRSLRLSCAASGFTFSNAWMHWVRQAPGKGLEWVAQIKDKGNAYAAYYAPSVKGRFTISRDDSKNSIYLQMNSLKTEDTAVYYCHYVHYASASTVLPAAGVDAWGQGTTVTVSS
VL: DIVMTQSPLSLPVTPGEPASISCQASQELVHMNRNTYLHWYQQKPGQAPRLLIYKVSNRFPGVPDRFSGSGSGTDFTLKISRVEAEDVGVYYCAQGTSVPFTFGQGTKLEIK
B12: H183/L072 VH F29Y (antibody, name in Kabat numbering, V domains shown)
VH: QVQLVESGGGLVQPGRSLRLSCAASGFTYSNAWMHWVRQAPGKGLEWVAQIKDKGNAYAAYYAPSVKGRFTISRDDSKNSIYLQMNSLKTEDTAVYYCHYVHYASASTVLPAFGVDAWGQGTTVTVSS
VL: DIVMTQSPLSLPVTPGEPASISCQASQELVHMNRNTYLHWYQQKPGQAPRLLIYKVSNRFPGVPDRFSGSGSGTDFTLKISRVEAEDVGVYYCAQGTSVPFTFGQGTKLEIK
B13: H183/L072 VH F29I (antibody, name in Kabat numbering, V domains shown)
VH: QVQLVESGGGLVQPGRSLRLSCAASGFTISNAWMHWVRQAPGKGLEWVAQIKDKGNAYAAYYAPSVKGRFTISRDDSKNSIYLQMNSLKTEDTAVYYCHYVHYASASTVLPAFGVDAWGQGTTVTVSS
VL: DIVMTQSPLSLPVTPGEPASISCQASQELVHMNRNTYLHWYQQKPGQAPRLLIYKVSNRFPGVPDRFSGSGSGTDFTLKISRVEAEDVGVYYCAQGTSVPFTFGQGTKLEIK
B14: H183/L072 VH F27P (antibody, name in Kabat numbering, V domains shown)
VH: QVQLVESGGGLVQPGRSLRLSCAASGPTFSNAWMHWVRQAPGKGLEWVAQIKDKGNAYAAYYAPSVKGRFTISRDDSKNSIYLQMNSLKTEDTAVYYCHYVHYASASTVLPAFGVDAWGQGTTVTVSS
VL: DIVMTQSPLSLPVTPGEPASISCQASQELVHMNRNTYLHWYQQKPGQAPRLLIYKVSNRFPGVPDRFSGSGSGTDFTLKISRVEAEDVGVYYCAQGTSVPFTFGQGTKLEIK
B15: H183/L072 VH F29M (antibody, name in Kabat numbering, V domains shown)
VH: QVQLVESGGGLVQPGRSLRLSCAASGFTMSNAWMHWVRQAPGKGLEWVAQIKDKGNAYAAYYAPSVKGRFTISRDDSKNSIYLQMNSLKTEDTAVYYCHYVHYASASTVLPAFGVDAWGQGTTVTVSS
VL: DIVMTQSPLSLPVTPGEPASISCQASQELVHMNRNTYLHWYQQKPGQAPRLLIYKVSNRFPGVPDRFSGSGSGTDFTLKISRVEAEDVGVYYCAQGTSVPFTFGQGTKLEIK
B16: H183/L072 VH F29V (antibody, name in Kabat numbering, V domains shown)
VH: QVQLVESGGGLVQPGRSLRLSCAASGFTVSNAWMHWVRQAPGKGLEWVAQIKDKGNAYAAYYAPSVKGRFTISRDDSKNSIYLQMNSLKTEDTAVYYCHYVHYASASTVLPAFGVDAWGQGTTVTVSS
VL: DIVMTQSPLSLPVTPGEPASISCQASQELVHMNRNTYLHWYQQKPGQAPRLLIYKVSNRFPGVPDRFSGSGSGTDFTLKISRVEAEDVGVYYCAQGTSVPFTFGQGTKLEIK
B17: H183/L072 VH F29W (antibody, name in Kabat numbering, V domains shown)
VH: QVQLVESGGGLVQPGRSLRLSCAASGFTWSNAWMHWVRQAPGKGLEWVAQIKDKGNAYAAYYAPSVKGRFTISRDDSKNSIYLQMNSLKTEDTAVYYCHYVHYASASTVLPAFGVDAWGQGTTVTVSS
VL: DIVMTQSPLSLPVTPGEPASISCQASQELVHMNRNTYLHWYQQKPGQAPRLLIYKVSNRFPGVPDRFSGSGSGTDFTLKISRVEAEDVGVYYCAQGTSVPFTFGQGTKLEIK
B18: H183/L072 VH F27R (antibody, name in Kabat numbering, V domains shown)
VH: QVQLVESGGGLVQPGRSLRLSCAASGRTFSNAWMHWVRQAPGKGLEWVAQIKDKGNAYAAYYAPSVKGRFTISRDDSKNSIYLQMNSLKTEDTAVYYCHYVHYASASTVLPAFGVDAWGQGTTVTVSS
VL: DIVMTQSPLSLPVTPGEPASISCQASQELVHMNRNTYLHWYQQKPGQAPRLLIYKVSNRFPGVPDRFSGSGSGTDFTLKISRVEAEDVGVYYCAQGTSVPFTFGQGTKLEIK
B19: H183/L072 VH F27T (antibody, name in Kabat numbering, V domains shown)
VH: QVQLVESGGGLVQPGRSLRLSCAASGTTFSNAWMHWVRQAPGKGLEWVAQIKDKGNAYAAYYAPSVKGRFTISRDDSKNSIYLQMNSLKTEDTAVYYCHYVHYASASTVLPAFGVDAWGQGTTVTVSS
VL: DIVMTQSPLSLPVTPGEPASISCQASQELVHMNRNTYLHWYQQKPGQAPRLLIYKVSNRFPGVPDRFSGSGSGTDFTLKISRVEAEDVGVYYCAQGTSVPFTFGQGTKLEIK
B20: H183/L072 VH F27S (antibody, name in Kabat numbering, V domains shown)
VH: QVQLVESGGGLVQPGRSLRLSCAASGSTFSNAWMHWVRQAPGKGLEWVAQIKDKGNAYAAYYAPSVKGRFTISRDDSKNSIYLQMNSLKTEDTAVYYCHYVHYASASTVLPAFGVDAWGQGTTVTVSS
VL: DIVMTQSPLSLPVTPGEPASISCQASQELVHMNRNTYLHWYQQKPGQAPRLLIYKVSNRFPGVPDRFSGSGSGTDFTLKISRVEAEDVGVYYCAQGTSVPFTFGQGTKLEIK

T1 sequence (chain, as listed by the source limits assumed): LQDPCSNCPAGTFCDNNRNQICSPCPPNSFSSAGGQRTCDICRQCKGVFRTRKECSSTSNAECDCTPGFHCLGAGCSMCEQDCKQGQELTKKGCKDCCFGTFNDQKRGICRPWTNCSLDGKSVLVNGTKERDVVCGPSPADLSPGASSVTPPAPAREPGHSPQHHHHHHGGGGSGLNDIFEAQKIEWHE

The assay addresses T1, Human CD137 ECD (human).
T1 construct: also called 4-1BB
Put plainly: single mutant vs template dBBDu183H.
Regarding B1, the “fold change of affinity” value was found to be 0.9 fold.
Turning to B2, the “fold change of affinity” value was determined as 0.3 fold.
In the case of B3, the “fold change of affinity” value is 1 fold.
In the case of B4, the “fold change of affinity” value is 0.1 fold.
Regarding B5, the “fold change of affinity” value turned out to be 0.4 fold.
As for B6, the “fold change of affinity” value came to 0.3 fold.
For B7, the “fold change of affinity” value is 0.3 fold.
Next, B8: 0.1 fold; B9: 0.3 fold; B10: 0.2 fold.
Next, B11: 0.5 fold; B12: 0.2 fold; B13: 0.3 fold.
Take B14: the “fold change of affinity” value is 0.3 fold.
On to B15, for which the “fold change of affinity” value came to 0.3 fold.
Take B16: the “fold change of affinity” value was determined as 0.1 fold.
Take B17: the “fold change of affinity” value was determined as 0.1 fold.
Next, B18: 0.2 fold.
On to B19, for which the “fold change of affinity” value turned out to be 0.3 fold.
Take B20: the “fold change of affinity” value came to 0.3 fold.

The values are drawn from US20210388087A1 (Chugai, published 2021).
